The values that follow come from article PMC6509880.

The assay deals with apo-CrHydA1 ([4Fe4S]-CrHydA1, Chlamydomonas reinhardtii [FeFe] hydrogenase HydA1 lacking the [2Fe] subsite) (Chlamydomonas reinhardtii).

“[2Fe]^adt-CaHydF (semi-synthetic HydF from Clostridium acetobutylicum loaded with [Fe2(adt)(CO)4(CN)2]^2-) (natural protein)” displayed an H2 evolution (methyl viologen assay, GC) of 0.04 uM apo-CrHydA1 after 60 min at 37 °C with 0.04-1.2 uM [2Fe]^adt-CaHydF; excess of HydF needed for complete activation of 10 fold excess.
